Measurements published in US20130035289A1, “PHARMACEUTICAL COMPOSITION FOR TREATMENT OF THROMBOSIS-RELATED DISEASES COMPRISING A FRAGMENT OF PROLACTIN (PRL)-GROWTH HORMONE (GH)-PLACENTAL LACTOGEN (PL)-FAMILY PROTEIN” (UNIVERSITE DE LIEGE, priority 2010, published 2013).

Biological target: T1, PAI-1 (Homo sapiens, UniProt P05121)
T1 construct: gift of Pr; P. Declerck
Experiment: Inhibition of PAI-1 anti-proteolytic activity, uPA/plasminogen chromogenic (colorimetric) assay
Format: biochemical
Details: uPA, bovine plasminogen, PAI-1, absorbance 405 nm
Description: The main physiological function of PAI-1 is to inhibit uPA and tPA proteolytic activity. […] A chromogenic substrate for plasmin (Spectrozyme PL: 0.5 mM. American Diagnostica INC) in PBS was added to the mixture in 96-well microtitration plates and kept at room temperature. The release of free p-nitro-aniline from the chromogenic substrate was measured spectrophotometrically. The activity of plasmin was determined as the absorbance at 405 nm.

T1 sequence (P05121 24-402): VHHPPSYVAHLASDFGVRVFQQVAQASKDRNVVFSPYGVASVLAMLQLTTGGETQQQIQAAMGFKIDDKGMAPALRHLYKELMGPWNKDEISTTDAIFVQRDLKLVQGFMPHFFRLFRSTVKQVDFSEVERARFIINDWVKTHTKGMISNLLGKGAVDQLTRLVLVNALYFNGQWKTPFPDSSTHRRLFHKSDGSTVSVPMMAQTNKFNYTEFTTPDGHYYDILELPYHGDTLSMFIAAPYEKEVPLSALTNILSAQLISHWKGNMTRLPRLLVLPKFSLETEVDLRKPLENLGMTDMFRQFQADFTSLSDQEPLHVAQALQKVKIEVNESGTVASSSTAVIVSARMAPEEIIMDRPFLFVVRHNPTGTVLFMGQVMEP

inhibition of PAI-1 function to inhibit uPA and tPA proteolytic activity: did not show any inhibition
B1: 23K PRL: the full fragment (full-length) prolactin (protein)
chain: LPICPGGAARCQVTLRDLFDRAVVLSHYIHNLSSEMFSEFDKRYTHGRGFITKAINSCHTSSLATPEDKEQAQQMNQKDFLSLIVSILRSWNEPLYHLVTEVRGMQEAPEAILSKAVEIEEQTKRLLEGMELIVSQVHPETKENEIYPVWSGLPSLQMADEESRLSAYYNLLHCLRRDSHKIDNYLKLLKCRIIHNNNC
